Test results reported in the DeepSol protein solubility set.

Assay: soluble on expression in E. coli; label from the status in PepcDB or PDB records

Row | Sequence | soluble on expression in E. coli
1 | MMSLVIAFISCSKSDEDKVIKEENPKITSDTFSAVIKDGFTGENGEDLILYKNLKNIVVGDYIPYDITIKDEDSANTKYILTPTRIGEKNHQYFQIDYDVYLDNDKGEKVRVNAITFDKIGKHRFYIKPLVPGTFKLSFVLQREQNGQKVQDIKFPTLNFNVVKITVYKTQIFIGLYEVRFYIEDGENETDIYLSPDPSVKQTFVSKYNDMTYTGDFNVKEFCKVGYYSSTIKTITSITIIQKREGEEEYRIEYYNIPIP | not soluble
2 | MSLDVTNRIERALTEALNQADMAGCPPRLAAAMRSAVFPRGARVRPRLCHSVALACGEDNPGITEAAGAALELMHCASLIHDDLPCFDGADLRRGRPSVHKAFGEPLAVLAGDAMIVLAFQTIARAEGQADRLLKLTQIIGGAVGVPFGIVAGQAWECETEINLAHYHRSKTGALFVAATAMGAASAGSDPEPWRMVGEKIGEAYQVADDLRDAAADVEEIGKPVGQDVAHDRPSAVREMGIDGAIYHLKSLVRGAVEAMPECTNGNELRSLIMSEATRLVPAEGHHHHHH | soluble
3 | MELQKALKEVREQKIAPVYLLIGTELYLTELFKTTLMKELLTEEDDQFNFFSFDMEETPLSAAIAEAETIPFFGDYRLVFVENPYFLTAERKTNGVEHDVNLLLNYLESPSPTTVLVFMASYEKLDERKKITKALKKNATVVDVNPMDEKAIRQYISQTIESEGYTIRSDAFDLLLQLTDLNLSKIMGELQKLYLYALETKTITRGAVQELVPKSLEHNVFDLTNEVLSGNSEKAVQLYEDLLLQGEETIKLNAILLNQIRLFLQTKILAKMGYQQANIADTLKVHPYRVKLALQQVRRFELSRLERLYDELVENDYRMKTGQMDKELLFQLFILKLTAQAK | not soluble
4 | MGSDKIHHHHHHMVEVLERLGCETVLPEKQICCGQPTYNSGYSKDSMKTFKNEIDALLSIDADYIVGPSGSCVFMIKEYKDIFKDDPEYGPKAAEIDSKIYEFTQFIYRVLKVVDCGAELDAKVTVHRSCHMTRLIGERTAPFVLLDHVKDIERVPLKNVQLCCGFGGTFSAKRPELSVEMVDEKVKNIVDTDAEILIGTEESCLMNIVGRMNRLGYKIKAMHIAEVLNHNVDINRIKYIKDTDHVVVPANGEGVF | not soluble
5 | SNDAGAKTENTVDASPTPTNTPTDGDGDSAEEPVENTPAEPEPRPTPVEPEAMKTSDKAGAIAAAQYFVEVIEHSMHTSTTDLLEKYSYEKCSMCNEYKRTIAKRKDNGILVTNSQYEIKDLGPASLWGKKQLIWEVMLNLSVKEEYENFDESYTTEHSLLFYVTYLPDGWVLTEVTPASKK | not soluble
6 | MTKKIIGIAGNQLLQAAEVFHGNQVTYTPQGFVSAVQAAGGVPLVLPIGPKELAATYIQQIDKLLLAGGQDVAPEFYGQEPHIKLEETNRDRDEFELALIEEALKQNKPIFAVCRGMQLVNVALGGTLYQDLSMYPQWSVKHGQQPTQPIFATHRIDVEPDSQLSNIYGTTGQVNSYHHQALHTLGKDLRVTAWSSDGLAEAVESTNEQQPLLAVQWHPELMYARDAKSQALFNYFVQKL | not soluble
7 | MGLFLEDLAVGDRFDSARHRVEAAAIKAFAGEFDPQPFHLDEEAARHSLFGGLAASGWHTAAITMRLLVTSGLPLAQGIIGAGTELSWPNPTRPGDELHVETTVLAITPSKSRPDRAIVTCQSDTLNQRGEVVQRSTAKVVVFRRPLEHHHHHH | soluble
8 | MKRSSVFSFLVAFLLVAGCSHKMDNKTVAGDVSAKTVQTAPVTTEPAPEKEEPKQEPAPVVEEKPAVESGTIIASIYFDFDKYEIKESDQETLDEIVQKAKENHMQVLLEGNTDEFGSSEYNQALGVKRTLSVKNALVIKGVEKDMIKTISFGETKPKCAQKTRECYKENRRVDVKLMK | not soluble
9 | GMALTPDQMPDRAEVVFTCNGKAVGKMRNELDVAMVKPFEERFALATDEGAFHGGDASAPPPLALFIAGLTGCVMTQIRAFAKRLKVTVTDLDVECRVVWDWAKAGPVYETGPKSFEIDIILHSPDPIEAQQALIEAAKKGCFLEQTLGQANTIRHRLKVGDTFIDA | soluble
10 | MLLLTRSPTAWHRLSQLKPPVLPGTLGGQALHLRSWLLSRQGPAETGGQGQPQGPGLRTRLLITGLFGAGLGGAWLALRAEKERLQQQKRTEALRQAAVGQGDFHLLDHRGRARCKADFRGQWVLMYFGFTHCPDICPDELEKLVQVVRQLEAEPGLPPVQPVFITVDPERDDVEAMARYVQDFHPRLLGLTGSTKQVAQASHSYRVYYNAGPKDEDQDYIVDHSIAIYLLNPDGLFTDYYGRSRSAEQISDSVRRHMAAFRSVLS | not soluble
11 | LNNRKQMAQQKFAFYEKSLPNKKRSFFEMKYYNDVTTPKIYRLTDQEMKLFDKLEA | not soluble
12 | MVRVGMRAAPRVSLEALKAALGGLKLSEAKVYLITDWQDKRDQARYALLLHTGKKDLLVPDAFGPAFPGGEEALSELVGLLLAQGARRFYEAVVSPGEMTALLDLPPEELLKRVMAIANPTDPGIYLKRAA | soluble
13 | SMRTAQEVETYRRSKEITVRGHNCPKPVLNFYEANFPANVMDVIARQNFTEPTAIQAQGWPVALSGLDMVGVAQTGSGKTLSYLLPAIVHINHQPFLERGDGPICLVLAPTRELAQQVQQVAAEYCRACRLKSTCIYGGAPKGPQIRDLERGVEICIATPGRLIDFLECGKTNLRRTTYLVLDEADRMLDMGFEPQIRKIVDQIRPDRQTLMWSATWPKEVRQLAEDFLKDYIHINIGALEL | soluble
14 | MKIYTRTGDAGETGLYGAERVVKAHPRVEAYGTVDEANSAIGLARSLLPGKHRDLHDLLERLQNALFDLGADLATRMGSPYEKNIARMDAEDVRALEEAIDRYQEESPPFQGFILPGGHPAAAALHLARTVVRRAERKAVALSREEPVNPEVIRYLNRLSDLLFVLARVVNAREGIKEEGWLVKKRR | soluble
15 | MKPIQLPLSVRLRDDATFANYYPGANAAALGYVERLCEAEAGWAESLIYLWGHDGVGRSHLLQAACLRFEQFEERTIYLPMADLVQYGPEIFDDLEQCELVCIDDLDVLVGKREWEEGLFHLFNRLRDTGRRLLLAASKSPRELQVKLPDLKSRLTMALIFQLHGLSDEDKLRALQLRASRRGLHLTDEVGRFILNRGSRSMNSLFDLLEQLDRASLQAQRKLTIPFLKETLGWLEHHHHHH | soluble
16 | MAYFIDRRLNGKNKSTVNRQRFLRRYKSQIKQSISEAINKRSVTDIESGESVSIPNADINEPMFHQGRGGHRHRVHPGNDHFVQNDKIERPQGGGGSGSGQGDASKDGEGDDEFVFQISKDEYLDLLFEDLALPNLKKTQHRQMTEYKMHRAGYTANGVPANISVVRSLQNSLARRMAMTAGKRRTLHELEESLEQLAYTEPAQLLEEERLREDIAELRKKIARVPFIDTFDLRYKNYERRAEPSSQAVMFCLMDVSGSMDQATKDMAKRFYILLYLFLSRNYKNVDVVYIRHHTQAKEVDEQEFFYSQETGGTIVSSALKLMEEVVRERYDPSQWNIYAAQASDGDNWADDSPLCHQILASKLLPMVRYYSYIEITRRSHQTLWREYETLRDTFDNFAMQHIRDQDDIYPVFRELFRKQTVGHLEHHHHHH | not soluble
17 | YHPVFSAKIEQRLIERFGVRRALIALDQPNDEAQRQQVAGLVSNYLTSTLKNGMVVTVGQGRNVSAVAHHVGVITPRDCKFVCSIGGIHPRGGMFNADHICRQLAKKYGGSSETLYAPAYAENPEQKRVFMQNSTVKQTLDLARKADIALVGIGDMSENSYMVDLGWFTPEEVVQSRLNQGVVGDFAGHDFFDVHGRIANTVMNDRVIGLGIDEFRPIAEVIAIAAENSKPLALLGALRTGAIDVIATSVSNALTVLNLDEQMQTALSAS | not soluble
18 | MNILLANPRGFCAGVDRAISIVELALEVHGAPIYVRHEVVHNRFVVDDLKAKGAIFVEELDEVPDSAIVIFSAHGVSQAVRQEAKRRGLKVFDATCPLVTKVHMQVARASKKGTKAILIGHQGHPEVIGTMGQYYNEQAGIFLVETVEDIANLPIHHHEDLTFMTQTTLSVDDTSGMIEALKNKYPAIQGPRKNDICYATTNRQQAVRELAKQAQLVLVVGSKNSSNSNRLAELASRMGVLAKLIDGPQDILPEWLDNVETIGITAGASAPEILVQSVVAHLQTLGATSVANLVGCEENMVFEVPKELRVREVKMAGDPLEHHHHHH | not soluble
19 | SEETYTDSLDPEKLLQCPYDKNHQIRACRFPYHLIKCRKNHPDVASKLATCPFNARHQVPRAEISHHISSCDDRSCIEQDVVNQTRSLRQETLAESTWQCPPCDEDWDKDLWEQTSTPFAWGTTHYSDNNSPASNIVTEHKNNLASGMRVPKSLPYVLPWKNNGNAQ | soluble
